Two proteins from article PMC7376121, “In-Lipid Structure of Pressure-Sensitive Domains Hints Mechanosensitive Channel Functional Diversity” (Biophysical Journal, 2020) can be followed below.

This data set deals with the molecule itself. The data set is described as follows: PELDOR/DEER; spin-labelled single-cysteine channel in DDM detergent solution (50 mM sodium phosphate pH 7.5, 300 mM NaCl, 0.05% DDM), diluted 1:1 with deuterated ethylene glycol, flash frozen; Q band, 50 K; distances between the labels of the subunits of one channel.

Substitutions are numbered along the chain they refer to. Numbers in names are those of the source.

B1: Escherichia coli MscL F93C, MTSSL spin-labelled (EcMscL F93R1) (natural protein, UniProt P0A742 1-136, looked up)
chain: MSIIKEFREFAMRGNVVDLAVGVIIGAAFGKIVSSLVADIIMPPLGLLIGGIDFKQFAVTLRDAQGDIPAVVMHYGVFIQNVFDFLIVAFAICMAIKLINKLNRKKEEPAAAPAPTKEEVLLTEIRDLLKEQNNRS
modifications: MTSSL spin label on the cysteine at 93 (R1)
notes: Mechanosensitive channel of large conductance (MscL), Escherichia coli; cysteine mutant on vector pET-52b; R1 denotes the spin-labelled cysteine; also called EcF93R1; source: E. coli BL21 (DE3), purified (Ni-NTA, SEC) in DDM, MTSSL spin-labelled; also reconstituted in MSP1D1 DMPC nanodisks
The stoichiometry N is the number of molecules, sites or subunits per partner or assembly. Regarding B1, the “stoichiometry N” value was determined as 5.

B2: Escherichia coli MscL M94C, MTSSL spin-labelled (EcMscL M94R1) (natural protein, UniProt P0A742 1-136, looked up)
chain: B1 chain with C93F, M94C
modifications: MTSSL spin label on the cysteine at 94 (R1)
notes: Mechanosensitive channel of large conductance (MscL), Escherichia coli; cysteine mutant on vector pET-52b; R1 denotes the spin-labelled cysteine; possibly a pentamer in DDM; also called EcM94R1; EcM94C; source: E. coli BL21 (DE3), purified (Ni-NTA, SEC) in DDM, MTSSL spin-labelled; also reconstituted in MSP1D1 DMPC nanodisks
Take B2: the binding result is on record as “binds”.
